Assay results reported in paper PMC9424271, “Invariant surface glycoprotein 65 of Trypanosoma brucei is a complement C3 receptor” (Nature Communications, 2022).

Tests used:
[1] = molecular target: ISG65 1125G (residues 24-385) with C-terminal AviTag and His10 tag, biotinylated (T. brucei EATRO1125); assay: SPR; biotinylated ISG65G (CHO, ~800 RU) on a streptavidin chip (SA); C3b and C3c from 500 nM in two-fold dilutions to 15.6 nM; 30 ul/min, 25 C, 20 mM HEPES pH 7.4, 150 mM NaCl, 0.005% TWEEN-20; C3b fitted to a two-state reaction model, C3c to a 1:1 Langmuir model
[2] = molecular target: ISG65 1125G (residues 24-385), expressed with kifunensine and deglycosylated with Endo Hf (T. brucei EATRO1125); assay: SPR; ISG65 1125G immobilised by amine coupling (345 RU) on a CM5 chip; C3d from 4 uM in two-fold serial dilutions; 30 ul/min, 25 C, 20 mM HEPES pH 7.4, 300 mM NaCl, 0.05% TWEEN-20; 1:1 Langmuir model
Human complement C3b = molecular target: T1, Human complement C3b (human, UniProt P01024); assay: SPR; biotinylated ISG65G (CHO, ~800 RU) immobilised on a streptavidin chip (Series S SA); C3b and C3c from 500 nM in two-fold dilutions to 15.6 nM; 30 ul/min, 25 C, 20 mM HEPES pH 7.4, 150 mM NaCl, 0.005% TWEEN-20; C3b fitted to a two-state reaction model, C3c to the 1:1 Langmuir model; averages of three flow paths with different immobilisation levels; conditions: both partners purified
T1 construct: source: bought: Complement Technology

Human complement C3c = molecular target: T2, Human complement C3c (human, UniProt P01024); assay: as above; conditions: both partners purified
T2 construct: source: bought: Complement Technology; copies: + +

[3] = molecular target: T3, Complement C3d (residues 996-1303 of H. sapiens C3, C1010A) (human, UniProt P01024 996-1303, C1010A); assay: SPR; ISG65 1125G immobilised by amine coupling (345 RU) on a CM5 chip; C3d from 4 uM in two-fold dilutions; 30 ul/min, 25 C, 20 mM HEPES pH 7.4, 300 mM NaCl, 0.05% TWEEN-20; 1:1 Langmuir model; averages of three repeats on the same flow path; conditions: both partners purified
T3 construct: also called C3d-WT; TED domain
T3 sequence (P01024 996-1303 C1010A): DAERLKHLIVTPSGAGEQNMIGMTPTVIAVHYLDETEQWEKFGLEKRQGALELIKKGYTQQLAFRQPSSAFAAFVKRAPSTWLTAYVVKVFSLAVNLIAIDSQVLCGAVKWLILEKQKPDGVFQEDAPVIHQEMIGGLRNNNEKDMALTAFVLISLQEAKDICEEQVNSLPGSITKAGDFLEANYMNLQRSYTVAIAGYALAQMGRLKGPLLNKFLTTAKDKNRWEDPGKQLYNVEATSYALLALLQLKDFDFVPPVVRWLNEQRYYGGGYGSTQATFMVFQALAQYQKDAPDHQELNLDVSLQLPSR

T2 sequence (P01024 23-667, chain 1 of 3): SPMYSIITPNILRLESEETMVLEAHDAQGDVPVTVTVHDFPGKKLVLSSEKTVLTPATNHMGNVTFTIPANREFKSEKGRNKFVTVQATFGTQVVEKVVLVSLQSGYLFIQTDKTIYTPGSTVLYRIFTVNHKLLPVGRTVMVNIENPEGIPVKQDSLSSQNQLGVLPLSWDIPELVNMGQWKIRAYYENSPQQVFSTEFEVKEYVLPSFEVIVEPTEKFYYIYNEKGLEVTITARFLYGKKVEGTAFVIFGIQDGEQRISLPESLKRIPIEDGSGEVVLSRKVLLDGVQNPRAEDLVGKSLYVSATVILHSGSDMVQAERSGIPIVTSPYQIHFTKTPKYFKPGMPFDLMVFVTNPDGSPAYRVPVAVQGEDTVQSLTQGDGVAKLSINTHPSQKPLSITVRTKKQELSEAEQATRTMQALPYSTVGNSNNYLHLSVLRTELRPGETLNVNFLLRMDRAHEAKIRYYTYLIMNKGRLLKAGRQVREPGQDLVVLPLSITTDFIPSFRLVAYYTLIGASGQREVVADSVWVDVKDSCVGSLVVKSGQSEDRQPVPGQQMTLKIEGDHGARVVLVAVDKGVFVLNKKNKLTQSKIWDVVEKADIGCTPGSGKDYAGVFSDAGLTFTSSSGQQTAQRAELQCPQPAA
T2 sequence (P01024 749-954, chain 2 of 3): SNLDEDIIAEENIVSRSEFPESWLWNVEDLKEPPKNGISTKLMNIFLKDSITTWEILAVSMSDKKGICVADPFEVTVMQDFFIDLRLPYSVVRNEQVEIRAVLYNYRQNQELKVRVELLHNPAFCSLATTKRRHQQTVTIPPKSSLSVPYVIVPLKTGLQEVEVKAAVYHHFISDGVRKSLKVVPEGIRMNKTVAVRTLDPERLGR
T2 sequence (P01024 1321-1663, chain 3 of 3): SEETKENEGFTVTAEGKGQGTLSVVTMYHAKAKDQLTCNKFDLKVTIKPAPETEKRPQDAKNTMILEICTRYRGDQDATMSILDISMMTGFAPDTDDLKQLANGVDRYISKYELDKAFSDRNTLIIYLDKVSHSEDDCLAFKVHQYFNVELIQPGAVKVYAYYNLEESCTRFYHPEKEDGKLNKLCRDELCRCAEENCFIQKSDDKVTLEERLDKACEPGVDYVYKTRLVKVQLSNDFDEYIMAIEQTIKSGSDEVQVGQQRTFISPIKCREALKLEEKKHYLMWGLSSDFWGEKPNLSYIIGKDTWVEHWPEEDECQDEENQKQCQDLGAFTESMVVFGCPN
T1 sequence (P01024 23-667, chain 1 of 2): as the sequence (P01024 23-667, chain 1 of 3) above
T1 sequence (P01024 749-1663, chain 2 of 2): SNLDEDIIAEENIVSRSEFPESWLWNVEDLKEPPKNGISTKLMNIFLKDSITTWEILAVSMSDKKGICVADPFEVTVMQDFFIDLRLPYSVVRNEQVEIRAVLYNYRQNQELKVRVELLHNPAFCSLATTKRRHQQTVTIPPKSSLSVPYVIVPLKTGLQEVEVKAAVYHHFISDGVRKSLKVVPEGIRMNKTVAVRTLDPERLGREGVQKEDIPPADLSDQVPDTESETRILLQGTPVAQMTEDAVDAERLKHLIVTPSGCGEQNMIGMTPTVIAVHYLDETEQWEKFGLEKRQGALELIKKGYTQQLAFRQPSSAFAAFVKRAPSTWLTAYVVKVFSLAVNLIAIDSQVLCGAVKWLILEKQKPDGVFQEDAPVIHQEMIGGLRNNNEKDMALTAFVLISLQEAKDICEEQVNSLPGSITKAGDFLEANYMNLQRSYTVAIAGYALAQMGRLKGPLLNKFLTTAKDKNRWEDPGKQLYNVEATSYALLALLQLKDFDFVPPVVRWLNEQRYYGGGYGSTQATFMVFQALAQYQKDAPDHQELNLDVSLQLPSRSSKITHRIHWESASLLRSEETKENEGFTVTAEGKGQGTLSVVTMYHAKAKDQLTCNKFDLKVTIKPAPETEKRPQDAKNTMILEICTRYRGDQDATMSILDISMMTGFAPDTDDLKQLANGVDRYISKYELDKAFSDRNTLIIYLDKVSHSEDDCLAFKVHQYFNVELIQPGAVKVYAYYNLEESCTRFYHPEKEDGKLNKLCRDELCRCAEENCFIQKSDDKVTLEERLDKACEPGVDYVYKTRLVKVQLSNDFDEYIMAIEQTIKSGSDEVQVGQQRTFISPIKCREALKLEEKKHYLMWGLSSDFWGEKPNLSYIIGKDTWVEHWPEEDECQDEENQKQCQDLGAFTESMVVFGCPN

## human complement C3c (domain or fragment)
[1]
  Kd: 750 nM

## human complement C3b (from UniProt P01024 749-1663) (domain or fragment)
[1]
  Kd: 40 nM

## human complement C3d (C3 residues 996-1303, C1010A) (from UniProt P01024 996-1303) (domain or fragment)
[2]
  Kd: 602 nM

B1: ISG65 1125G (residues 24-385), biotinylated (domain or fragment)
chain: EDNRVPGDKNLTKEGAAALCKMKHLADKVAEKRSQELKDRTQNFAGYIEFELYRIDYWLEKLNGPKGRKDGYAKLSDSDIEKVKEIFDKAKDGIAKQLPEAKKAGEDAEKLHTEVKEAAANARGQDLDDHKQKSTGLYRVLNWYCITKEESHNATPNCDGIQFRNHYLSVNRSAIDCSSTGYEENYDWSANALQVALNSWENVKPKKLESAGSDENCNIGQSSESHPCTMTEEWQTHYKETVKKLKELEGAHEKGRRAHDAMLGYANTAYAVNTKVEQEKPLAEVIAAAKEAGKKGAKIIIPAAAPVTPTNSTKNEDSAPTEHVDRGIATNETQVEVGIDADFDGLLEAAEAAEVTRRHQKTGSGSGSASG
modifications: biotin on the AviTag
notes: also called ISG65G; ISG65 E1125G
Human complement C3b
  Kd: 67 nM
Human complement C3c
  Kd: 391 nM
  koff: 0.008 s⁻¹
  kon: 20000 M⁻¹ s⁻¹

B2: ISG65 1125G (residues 24-385), expressed with kifunensine and treated with Endo Hf (domain or fragment)
chain: EDNRVPGDKNLTKEGAAALCKMKHLADKVAEKRSQELKDRTQNFAGYIEFELYRIDYWLEKLNGPKGRKDGYAKLSDSDIEKVKEIFDKAKDGIAKQLPEAKKAGEDAEKLHTEVKEAAANARGQDLDDHKQKSTGLYRVLNWYCITKEESHNATPNCDGIQFRNHYLSVNRSAIDCSSTGYEENYDWSANALQVALNSWENVKPKKLESAGSDENCNIGQSSESHPCTMTEEWQTHYKETVKKLKELEGAHEKGRRAHDAMLGYANTAYAVNTKVEQEKPLAEVIAAAKEAGKKGAKIIIPAAAPVTPTNSTKNEDSAPTEHVDRGIATNETQVEVGIDADFDGLLEAAEAAEVTRRHQKTGSGSGSASG
notes: also called ISG65G
[3]
  Kd: 514 nM
  koff: 0.1 s⁻¹
  kon: 300000 M⁻¹ s⁻¹
